This is an account of results in PMC11873932, “PSKH1 kinase activity is differentially modulated via allosteric binding of Ca^2+ sensor proteins” (Proceedings of the National Academy of Sciences of the …, 2025).

Experiment [1] concerns the target T1, Protein Serine Kinase H1 (PSKH1), recombinant full-length, wild type (human, UniProt P11801 1-424).
T1 construct: Protein Serine Kinase H1 (PSKH1), human, full length; also called recombinant PSKH1
T1 sequence (looked up): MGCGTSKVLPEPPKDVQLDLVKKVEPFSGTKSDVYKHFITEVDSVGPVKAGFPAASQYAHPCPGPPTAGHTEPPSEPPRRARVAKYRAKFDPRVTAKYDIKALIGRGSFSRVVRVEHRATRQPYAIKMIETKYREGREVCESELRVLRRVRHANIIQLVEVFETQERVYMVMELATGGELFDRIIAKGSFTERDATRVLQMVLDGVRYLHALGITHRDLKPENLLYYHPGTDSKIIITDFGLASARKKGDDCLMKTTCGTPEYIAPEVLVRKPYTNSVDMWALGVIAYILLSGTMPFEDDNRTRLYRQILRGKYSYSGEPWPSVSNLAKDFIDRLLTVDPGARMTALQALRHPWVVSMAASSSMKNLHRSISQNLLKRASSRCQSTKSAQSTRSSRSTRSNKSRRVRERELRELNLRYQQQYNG
Briefly: cross-linking; SDA (NHS-Diazirine, 1 mg/mL) cross-linking mass spectrometry; recombinant full-length PSKH1 with Calmodulin, RCN3 or UNC119B at 1:2 molar ratio; 30 min in the dark at room temperature, UV 365 nm; bands cut from reducing SDS-PAGE, trypsin. Conditions: both partners purified.

Experiment [2] deals with T1, Protein Serine Kinase H1 (PSKH1), …. The experiment is described as follows: cell-based or functional assay.

B1: UNC119B, recombinant full-length (natural protein)
chain: not shown
notes: UNC119B, human, full length
Take B1: in experiment [1], the binding result is given as “binds”.

B2: Reticulocalbin-3 (RCN3), recombinant (His6-RCN3) (natural protein, human, UniProt Q96D15 21-328, looked up)
chain: KPSPDAGPHGQGRVHQAAPLSDAPHDDAHGNFQYDHEAFLGREVAKEFDQLTPEESQARLGRIVDRMDRAGDGDGWVSLAELRAWIAHTQQRHIRDSVSAAWDTYDTDRDGRVGWEELRNATYGHYAPGEEFHDVEDAETYKKMLARDERRFRVADQDGDSMATREELTAFLHPEEFPHMRDIVIAETLEDLDRNKDGYVQVEEYIADLYSAEPGEEEPAWVQTERQQFRDFRDLNKDGHLDGSEVGHWVLPPAQDQPLVEANHLLHESDTDKDGRLSKAEILGNWNMFVGSQATNYGEDLTRHHDEL
With B2, the “radiometric kinase assay (ADR1 peptide phosphorylation) of HA-tagged PSKH1 (10 ng) with Ca2+-RCN3 (1 uM)” value in experiment [2] is about 2 fold.
